Source: PMC2756588

T1: Pex13, P80667
T1 sequence (P80667 295-386, looked up): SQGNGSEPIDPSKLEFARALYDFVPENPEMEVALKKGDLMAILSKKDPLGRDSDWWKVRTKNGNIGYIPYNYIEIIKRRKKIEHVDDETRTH

T2: Bud14, P27637
T2 sequence (P27637 247-328, looked up): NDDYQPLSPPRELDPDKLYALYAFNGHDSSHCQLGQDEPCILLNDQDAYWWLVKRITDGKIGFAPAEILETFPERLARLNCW

T3: Bzz1-1, P38822
T3 sequence (P38822 478-572, looked up): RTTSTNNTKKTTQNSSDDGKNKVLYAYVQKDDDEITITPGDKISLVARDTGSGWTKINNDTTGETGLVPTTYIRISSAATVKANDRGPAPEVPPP

T4: Hof1, Q05080
T4 sequence (Q05080 590-669, looked up): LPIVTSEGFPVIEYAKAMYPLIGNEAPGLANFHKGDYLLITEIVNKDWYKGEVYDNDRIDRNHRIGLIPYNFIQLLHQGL

T5: Boi2, P39969
T5 sequence (P39969 32-116, looked up): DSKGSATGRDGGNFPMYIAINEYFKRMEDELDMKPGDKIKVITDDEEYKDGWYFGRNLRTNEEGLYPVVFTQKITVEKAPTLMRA

T6: Sla1-3, P32790
T6 sequence (P32790 344-424, looked up): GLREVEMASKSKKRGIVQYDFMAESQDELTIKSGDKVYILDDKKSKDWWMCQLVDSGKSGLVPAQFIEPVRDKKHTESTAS

T7: Cyk3, Q07533
T7 sequence (Q07533 1-83, looked up): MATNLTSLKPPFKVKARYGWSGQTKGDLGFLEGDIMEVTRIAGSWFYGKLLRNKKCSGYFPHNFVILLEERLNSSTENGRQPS

T8: Pin3, Q06449
T8 sequence (Q06449 53-122, looked up): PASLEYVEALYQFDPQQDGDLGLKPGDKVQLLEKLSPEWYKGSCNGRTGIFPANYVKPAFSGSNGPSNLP

T9: Abp1, P15891
T9 sequence (P15891 535-592, looked up): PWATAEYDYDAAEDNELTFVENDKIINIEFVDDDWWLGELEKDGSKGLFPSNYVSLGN

T10: Bbc1, P47068
T10 sequence (P47068 1-78, looked up): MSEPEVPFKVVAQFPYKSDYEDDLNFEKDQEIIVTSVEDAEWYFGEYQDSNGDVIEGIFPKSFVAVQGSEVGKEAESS

T11: Lsb4, P32793
T11 sequence (P32793 402-468, looked up): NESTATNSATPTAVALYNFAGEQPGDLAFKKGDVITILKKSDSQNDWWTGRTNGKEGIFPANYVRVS

T12: Boi1, P38041
T12 sequence (P38041 1-86, looked up): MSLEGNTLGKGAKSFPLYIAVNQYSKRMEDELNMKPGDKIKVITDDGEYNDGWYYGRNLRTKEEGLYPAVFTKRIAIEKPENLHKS

T13: Hse1, P38753
T13 sequence (P38753 208-285, looked up): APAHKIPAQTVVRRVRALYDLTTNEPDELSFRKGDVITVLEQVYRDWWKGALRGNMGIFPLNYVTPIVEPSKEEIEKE

T14: Fus1, P11710
T14 sequence (P11710 432-512, looked up): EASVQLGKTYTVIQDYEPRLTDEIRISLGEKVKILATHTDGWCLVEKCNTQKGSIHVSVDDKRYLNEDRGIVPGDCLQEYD

T15: Sla1-2, P32790
T15 sequence (P32790 60-140, looked up): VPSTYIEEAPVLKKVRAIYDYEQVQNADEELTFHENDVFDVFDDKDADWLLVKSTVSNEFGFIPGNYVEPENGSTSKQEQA

T16: Lsb3, P43603
T16 sequence (P43603 385-451, looked up): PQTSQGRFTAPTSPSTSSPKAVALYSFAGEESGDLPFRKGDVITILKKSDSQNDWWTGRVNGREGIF

T17: Cdc25, P04821
T17 sequence (P04821 50-136, looked up): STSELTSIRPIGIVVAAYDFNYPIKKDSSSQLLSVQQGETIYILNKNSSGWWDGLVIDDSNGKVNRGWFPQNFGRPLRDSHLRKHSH

T18: Lsb1, P53281
T18 sequence (P53281 45-122, looked up): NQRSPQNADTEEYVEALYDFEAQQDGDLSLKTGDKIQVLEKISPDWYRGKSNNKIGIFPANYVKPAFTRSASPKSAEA

T19: Myo5, Q04439
T19 sequence (Q04439 1072-1160, looked up): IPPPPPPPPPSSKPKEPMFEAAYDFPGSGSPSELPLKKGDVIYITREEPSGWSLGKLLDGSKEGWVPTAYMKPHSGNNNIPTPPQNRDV

T20: Nbp2, Q12163
T20 sequence (Q12163 103-180, looked up): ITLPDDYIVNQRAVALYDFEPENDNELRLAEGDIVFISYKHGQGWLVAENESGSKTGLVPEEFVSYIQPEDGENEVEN

T21: Bzz1-2, P38822
T21 sequence (P38822 568-633, looked up): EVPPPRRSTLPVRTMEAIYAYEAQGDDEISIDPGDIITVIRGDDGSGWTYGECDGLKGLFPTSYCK


Tests used:
Assay in all cases: SPOT array
Pex13, P80667 = molecular target: T1, Pex13, P80667; conditions: median of control spots 1341
Bud14, P27637 = molecular target: T2, Bud14, P27637; conditions: median of control spots 956
Sho1, P40073 = conditions: median of control spots 1148
Bzz1-1, P38822 = molecular target: T3, Bzz1-1, P38822; conditions: median of control spots 4446
Hof1, Q05080 = molecular target: T4, Hof1, Q05080; conditions: median of control spots 4086
Boi2, P39969 = molecular target: T5, Boi2, P39969; conditions: median of control spots 1161
GST = conditions: median of control spots 978
Bem1-2, P29366 = conditions: median of control spots 4347
Sla1-3, P32790 = molecular target: T6, Sla1-3, P32790; conditions: median of control spots 5475
Cyk3, Q07533 = molecular target: T7, Cyk3, Q07533; conditions: median of control spots 1451
Rvs167, P39743 = conditions: median of control spots 2707
Pin3, Q06449 = molecular target: T8, Pin3, Q06449; conditions: median of control spots 2171
Abp1, P15891 = molecular target: T9, Abp1, P15891; conditions: median of control spots 935
Myo3, P36006 = conditions: median of control spots 468
Bbc1, P47068 = molecular target: T10, Bbc1, P47068; conditions: median of control spots 796
Lsb4, P32793 = molecular target: T11, Lsb4, P32793; conditions: median of control spots 397
Boi1, P38041 = molecular target: T12, Boi1, P38041; conditions: median of control spots 1162
Hse1, P38753 = molecular target: T13, Hse1, P38753; conditions: median of control spots 1727
Fus1, P11710 = molecular target: T14, Fus1, P11710; conditions: median of control spots 1200
Sla1-2, P32790 = molecular target: T15, Sla1-2, P32790; conditions: median of control spots 712
Lsb3, P43603 = molecular target: T16, Lsb3, P43603; conditions: median of control spots 406
Bem1-1, P29366 = conditions: median of control spots 4282
Cdc25, P04821 = molecular target: T17, Cdc25, P04821; conditions: median of control spots 969
Lsb1, P53281 = molecular target: T18, Lsb1, P53281; conditions: median of control spots 388
Myo5, Q04439 = molecular target: T19, Myo5, Q04439; conditions: median of control spots 471
Nbp2, Q12163 = molecular target: T20, Nbp2, Q12163; conditions: median of control spots 357
Bzz1-2, P38822 = molecular target: T21, Bzz1-2, P38822; conditions: median of control spots 4538

Bem1-1, P29366, sequence (P29366 55-141): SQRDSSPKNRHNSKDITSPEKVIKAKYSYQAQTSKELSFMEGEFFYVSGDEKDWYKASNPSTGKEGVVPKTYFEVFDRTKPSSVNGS
Sho1, P40073, sequence (P40073 287-367): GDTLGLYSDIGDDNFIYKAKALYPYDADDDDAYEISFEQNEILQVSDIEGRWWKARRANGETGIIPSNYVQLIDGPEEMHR
Bem1-2, P29366, sequence (P29366 139-227): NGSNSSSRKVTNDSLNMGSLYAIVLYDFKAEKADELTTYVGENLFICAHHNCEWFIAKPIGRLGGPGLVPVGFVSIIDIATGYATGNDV
Rvs167, P39743, sequence (P39743 419-482): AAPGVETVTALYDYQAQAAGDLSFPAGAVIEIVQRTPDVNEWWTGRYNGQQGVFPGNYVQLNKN

SPOT intensity (Pex13, P80667)	SPOT intensity (Bud14, P27637)	SPOT intensity (Sho1, P40073)	SPOT intensity (Bzz1-1, P38822)	SPOT intensity (Hof1, Q05080)	SPOT intensity (Boi2, P39969)	SPOT intensity (GST)	SPOT intensity (Bem1-2, P29366)	SPOT intensity (Sla1-3, P32790)	SPOT intensity (Cyk3, Q07533)	SPOT intensity (Rvs167, P39743)	SPOT intensity (Pin3, Q06449)	SPOT intensity (Abp1, P15891)	SPOT intensity (Myo3, P36006)	SPOT intensity (Bbc1, P47068)	SPOT intensity (Lsb4, P32793)	SPOT intensity (Boi1, P38041)	SPOT intensity (Hse1, P38753)	SPOT intensity (Fus1, P11710)	SPOT intensity (Sla1-2, P32790)	Binder	further results
95	0	7	0	0	2	0	0	0	0	6	68	41	34	0	27	0	0	0	2	QFDLKMPSKPIHNLK	SPOT intensity (Lsb3, P43603): 9; SPOT intensity (Bem1-1, P29366): 0; SPOT intensity (Cdc25, P04821): 1; SPOT intensity (Lsb1, P53281): 1; SPOT intensity (Myo5, Q04439): 29; SPOT intensity (Nbp2, Q12163): 0; SPOT intensity (Bzz1-2, P38822): 0
27	17	267	0	70	0	0	476	607	3	0	4	151	46	294	18	28	113	59	4	NPNRRAPRRPLSTQH	SPOT intensity (Lsb3, P43603): 2; SPOT intensity (Bem1-1, P29366): 3; SPOT intensity (Cdc25, P04821): 221; SPOT intensity (Lsb1, P53281): 52; SPOT intensity (Myo5, Q04439): 0; SPOT intensity (Nbp2, Q12163): 626; SPOT intensity (Bzz1-2, P38822): 56
47	22	93	2	3	6	0	0	0	9	0	15	55	10	156	0	122	10	243	0	NFLRLLIGLPSQNEL	SPOT intensity (Lsb3, P43603): 0; SPOT intensity (Bem1-1, P29366): 1; SPOT intensity (Cdc25, P04821): 354; SPOT intensity (Lsb1, P53281): 2; SPOT intensity (Myo5, Q04439): 0; SPOT intensity (Nbp2, Q12163): 84; SPOT intensity (Bzz1-2, P38822): 0
93	12	168	0	33	17	1	27	54	13	8	39	142	44	218	21	192	116	628	4	ALFRLSFFFPLDPAY	SPOT intensity (Lsb3, P43603): 16; SPOT intensity (Bem1-1, P29366): 0; SPOT intensity (Cdc25, P04821): 359; SPOT intensity (Lsb1, P53281): 49; SPOT intensity (Myo5, Q04439): 17; SPOT intensity (Nbp2, Q12163): 283; SPOT intensity (Bzz1-2, P38822): 31
73	5	304	0	24	0	0	0	13	0	2	41	417	77	44	63	7	25	100	10	FLIKFTPKFPQSIDH	SPOT intensity (Lsb3, P43603): 32; SPOT intensity (Bem1-1, P29366): 1; SPOT intensity (Cdc25, P04821): 209; SPOT intensity (Lsb1, P53281): 46; SPOT intensity (Myo5, Q04439): 27; SPOT intensity (Nbp2, Q12163): 418; SPOT intensity (Bzz1-2, P38822): 9
36	7	141	2	364	2	2	353	124	0	0	16	53	13	35	0	7	114	653	1	NHSRSLFSLPGNQQS	SPOT intensity (Lsb3, P43603): 0; SPOT intensity (Bem1-1, P29366): 3; SPOT intensity (Cdc25, P04821): 333; SPOT intensity (Lsb1, P53281): 46; SPOT intensity (Myo5, Q04439): 1; SPOT intensity (Nbp2, Q12163): 77; SPOT intensity (Bzz1-2, P38822): 19
